In US20020157126A1 (published 2002):
Each block holds one molecule with its values, some of them ahead of it.

Columns and labels:
[1] = target: T1, myostatin mature C-terminal dimer (purified from conditioned medium of CHO cells) (UniProt O08689 268-376, limits assumed, radio-iodinated (chloramine T method) when used as the labeled ligand); assay: inhibition of labeled myostatin binding to Act RIIB-transfected COS-7 cells, 4 °C; reference is the Ki of follistatin
T1 construct: mature; also called GDF-8; mature C-terminal peptide
T1 sequence (looked up): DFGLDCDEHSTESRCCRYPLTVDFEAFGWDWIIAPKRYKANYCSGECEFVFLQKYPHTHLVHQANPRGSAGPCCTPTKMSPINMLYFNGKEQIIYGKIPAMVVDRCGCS

[2] = target: GDF-8 receptor (cell surface binding proteins) on L6 myoblasts; assay: receptor-ligand binding assay with I-125 labeled GDF-8 on myoblast cells
[3] = target: T1, myostatin mature C-terminal dimer …; assay: inhibition of labeled myostatin binding to Act RIIB-transfected COS-7 cells, 4 °C
Procedure: Receptor binding. Purified myostatin was radioiodinated using the chloramine T method (Frolik, C. A., Wakefield, L. M., Smith, D. M. & Sporn, M. B. (1984) J Biol Chem 259, 10995-11000). COS-7 cells grown in 6 or 12 well plates were transfected with 1-2 μg pCMV5 or pCMV5/receptor construct using lipofectamine (Gibco, Rockville, Md.). Crosslinking experiments were carried out 2 days post transfection as described (Franzén, P., ten Dijke, P., Ichijo, H., Yamashita, H., Schultz, P., Heldin, C.-H. & Miyazono, K. (1993) Cell 75, 681-692). For quantitative receptor binding assays, cell monolayers were washed twice with PBS containing 1 mg/ml BSA and incubated with labeled myostatin in the presence or absence of various concentrations of unlabeled myostatin, pro peptide, or follistatin at 4° C. Cells were then washed 3 times with the same buffer, lysed in 0.5N NaOH, and counted in a gamma counter. Specific binding was calculated as the difference in bound myostatin between cells transfected with Act RIIB and cells transfected with vector.
The effect of the pro peptide and follistatin in vitro was then studied. Both the myostatin pro peptide and follistatin were capable of blocking the binding of the C-terminal dimer to Act RIIB. […]

fold Ki relative to follistatin [1]: 50 fold
Molecule: myostatin prodomain peptide (purified from CHO cell conditioned medium, HPLC fractions 35-37) (from UniProt O08689 25-267)

Kd [2]: 0.37 nM
Molecule: recombinant human GDF-8 (rhGDF-8) homodimer (from UniProt O14793 267-374) (ligand)

Ki [3]: ~0.47 nM
B1: follistatin (other, UniProt P19883-2 30-317, looked up)
chain: GNCWLRQAKNGRCQVLYKTELSKEECCSTGRLSTSWTEEDVNDNTLFKWMIFNGGAPNCIPCKETCENVDCGPGKKCRMNKKNKPRCVCAPDCSNITWKGPVCGLDGKTYRNECALLKARCKEQPELEVQYQGRCKKTCRDVFCPGSSTCVVDQTNNAYCVTCNRICPEPASSEQYLCGNDGVTYSSACHLRKATCLLGRSIGLAYEGKCIKAKSCEDIQCTGGKKCLWDFKVGRGRCSLCDELCPDSKSDEPVCASDNATYASECAMKEAACSSGVLLEVKHSGSCN
